Measurements taken from PMC6739210.

Legend:
[1] = biological target: Mortalin/GRP-75/mt-hsp70 (human (endogenous in MCF-7, MDA-MB-231 and K562)) (UniProt P38646)
[2] = biological target: Mortalin/GRP-75/mt-hsp70 (human (endogenous in MCF-7, MDA-MB-231 and K562)) (UniProt P38646); remark: listed apart in the source

Sequence of UniProt P38646 (P38646 47-679): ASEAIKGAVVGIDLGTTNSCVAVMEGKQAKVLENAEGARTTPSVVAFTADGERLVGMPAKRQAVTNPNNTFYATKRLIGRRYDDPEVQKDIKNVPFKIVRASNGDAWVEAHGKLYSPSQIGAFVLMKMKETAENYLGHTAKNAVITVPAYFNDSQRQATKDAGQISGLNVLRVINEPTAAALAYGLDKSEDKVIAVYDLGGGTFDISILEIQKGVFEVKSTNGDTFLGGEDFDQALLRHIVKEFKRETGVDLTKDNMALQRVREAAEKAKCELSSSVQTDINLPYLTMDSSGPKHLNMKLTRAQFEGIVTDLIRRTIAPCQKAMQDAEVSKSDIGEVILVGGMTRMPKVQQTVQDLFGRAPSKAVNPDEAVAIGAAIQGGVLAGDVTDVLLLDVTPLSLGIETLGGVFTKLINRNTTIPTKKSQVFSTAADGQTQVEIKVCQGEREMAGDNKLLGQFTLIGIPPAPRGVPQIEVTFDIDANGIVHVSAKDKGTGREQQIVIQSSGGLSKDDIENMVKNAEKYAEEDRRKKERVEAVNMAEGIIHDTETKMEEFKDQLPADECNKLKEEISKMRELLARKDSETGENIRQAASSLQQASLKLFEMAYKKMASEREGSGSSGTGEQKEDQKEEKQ

SMRwt-CPP peptide
complement C9 level in extracellular vesicles of K562 cells after peptide and NHS, Western blot, compared to the NHS-treated controls [1]: 24.3% | complement C9 level in extracellular vesicles of MCF-7 cells after peptide and NHS, Western blot, compared to the NHS-treated controls [1]: 37.5% | complement C9 level in extracellular vesicles of MDA-MB-231 cells after peptide and NHS, Western blot, compared to the NHS-treated controls [1]: 56.3% | mortalin level in extracellular vesicles of K562 cells after peptide and NHS, Western blot, compared to the NHS-treated controls [1]: 34.4% | mortalin level in extracellular vesicles of MCF-7 cells after peptide and NHS, Western blot, compared to the NHS-treated controls [1]: 48.4% | mortalin level in extracellular vesicles of MDA-MB-231 cells after peptide and NHS, Western blot, compared to the NHS-treated controls [1]: 27.5% | complement-mediated cytotoxicity (trypan blue), percent cell death of K562 cells treated with 1120 nM peptide, anti-CXCR4 antibody, minus or plus normal human serum [2]: 23% | complement-mediated cytotoxicity (trypan blue), percent cell death of MCF-7 cells treated with 300 nM peptide, anti-CXCR4 antibody, minus or plus normal human serum [2]: 29% | complement-mediated cytotoxicity (trypan blue), percent cell death of MDA-MB-231 cells treated with 540 nM peptide, anti-CXCR4 antibody, minus or plus normal human serum [2]: 9%
